From PMC2172978 (The Journal of Cell Biology, 2003)

Molecular target: T1, flag–Lte1 (budding yeast, UniProt P07866 1-1435)
T1 sequence (looked up): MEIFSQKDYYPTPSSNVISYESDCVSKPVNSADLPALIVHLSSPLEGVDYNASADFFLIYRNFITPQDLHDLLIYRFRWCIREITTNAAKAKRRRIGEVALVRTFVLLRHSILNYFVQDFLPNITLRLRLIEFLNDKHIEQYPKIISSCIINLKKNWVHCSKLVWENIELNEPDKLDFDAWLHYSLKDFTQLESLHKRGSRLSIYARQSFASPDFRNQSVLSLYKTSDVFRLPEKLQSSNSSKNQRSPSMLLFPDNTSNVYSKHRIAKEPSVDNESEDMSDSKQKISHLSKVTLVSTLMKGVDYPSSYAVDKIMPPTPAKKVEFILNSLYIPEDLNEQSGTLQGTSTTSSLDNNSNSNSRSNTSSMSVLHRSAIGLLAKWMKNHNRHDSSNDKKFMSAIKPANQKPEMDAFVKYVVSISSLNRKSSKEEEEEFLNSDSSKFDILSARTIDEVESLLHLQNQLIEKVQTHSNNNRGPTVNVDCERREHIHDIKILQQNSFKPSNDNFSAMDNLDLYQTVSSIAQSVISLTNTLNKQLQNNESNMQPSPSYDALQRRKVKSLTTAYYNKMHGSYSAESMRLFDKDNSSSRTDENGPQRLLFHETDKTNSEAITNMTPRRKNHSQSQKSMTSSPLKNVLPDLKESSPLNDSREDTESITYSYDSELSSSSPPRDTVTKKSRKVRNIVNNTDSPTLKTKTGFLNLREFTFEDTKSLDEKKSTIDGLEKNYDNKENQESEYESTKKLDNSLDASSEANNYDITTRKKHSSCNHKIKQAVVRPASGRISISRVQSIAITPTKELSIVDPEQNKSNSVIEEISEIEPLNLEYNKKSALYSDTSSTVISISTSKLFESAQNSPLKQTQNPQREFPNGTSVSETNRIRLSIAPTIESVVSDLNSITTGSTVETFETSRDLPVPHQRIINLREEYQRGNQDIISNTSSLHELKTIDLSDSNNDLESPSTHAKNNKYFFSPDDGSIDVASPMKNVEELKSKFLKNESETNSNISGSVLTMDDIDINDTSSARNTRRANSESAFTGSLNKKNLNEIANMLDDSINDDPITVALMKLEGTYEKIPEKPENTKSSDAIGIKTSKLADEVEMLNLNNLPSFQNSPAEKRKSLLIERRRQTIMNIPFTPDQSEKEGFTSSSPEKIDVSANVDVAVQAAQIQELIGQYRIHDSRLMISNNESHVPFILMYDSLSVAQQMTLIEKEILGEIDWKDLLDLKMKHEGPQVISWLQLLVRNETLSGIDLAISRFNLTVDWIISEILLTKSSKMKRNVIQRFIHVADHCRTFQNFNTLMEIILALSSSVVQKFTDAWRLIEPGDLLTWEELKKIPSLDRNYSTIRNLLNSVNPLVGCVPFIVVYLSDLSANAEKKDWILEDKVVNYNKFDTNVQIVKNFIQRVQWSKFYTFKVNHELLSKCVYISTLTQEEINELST
Test: pull-down

binding result: binds
B1: Ras2 protein purified from the insect cells (natural protein, budding yeast, UniProt P01120 1-322, looked up)
chain: MPLNKSNIREYKLVVVGGGGVGKSALTIQLTQSHFVDEYDPTIEDSYRKQVVIDDEVSILDILDTAGQEEYSAMREQYMRNGEGFLLVYSITSKSSLDELMTYYQQILRVKDTDYVPIVVVGNKSDLENEKQVSYQDGLNMAKQMNAPFLETSAKQAINVEEAFYTLARLVRDEGGKYNKTLTENDNSKQTSQDTKGSGANSVPRNSGGHRKMSNAANGKNVNSSTTVVNARNASIESKTGLAGNQATNGKTQTDRTNIDNSTGQAGQANAQSANTVNNRVNNNSKAGQVSNAKQARKQQAAPGGNTSEASKSGSGGCCIIS
